The results in this text go back to patent publication US8975044B2, “Polynucleotides encoding for frizzled-binding agents and uses thereof” (OncoMed Pharmaceuticals, Inc., priority 2008, dated 2015).

Experiment [1] concerns Muc16. The experiment can be described thus: Muc16 immunohistochemistry on treated OMP-PN13 tumors. Conditions: 3 doses of 10 mg/kg IP over 12 days; vs LZ1. In kind it is in vivo, NOD/SCID mice. How it is done: (§1) Frozen OMP-PN13 tumor cells that have been passaged twice in mice were obtained from Oncomed's tumor bank. They were thawed and injected subcutaneously into the left flank of NOD/SCID mice immediately following thawing. ˜ 25,000 viable cells were injected per animal. The mice were monitored weekly for tumor growth. After their onset, the size of the tumors was measured once weekly by caliper. 200-300 mm^3 tumor-bearing mice were dispatched in treatment groups that each contained 5 animals. […] Ab treatment was initiated the day after randomization. LZ1 was used as the negative control Ab. 3 doses of 10 mg/kg of Ab were administered via intra-peritoneal injection over a 12-day period. Mice were euthanized 24 hours after the last injection. Tumor, duodenum and liver were harvested.
Tumor tissues were fixed in formalin for paraffin embedding and sectioning. Muc16 detection was performed by immunohistochemical (1HC) to monitor the appearance of Mucin-producing cells. Mucins are specific for a subtype of differentiated cells in the pancreas, and as such are used as differentiation markers in the tumor model.
Formalin-fixed, paraffin-embedded (FFPE) sections were de-parrafinized. The slides were first de-parrafinized by sequential treatment with xylene twice for 5 minutes each. […]

Experiment [2] has as its system Wnt target genes. The experiment can be described thus: qPCR of Wnt target genes in liver of OMP-PN13-bearing mice. It counts as in vivo, NOD/SCID mice. How it is done:
as §1
(§2) Total RNAs were also extracted from tumor, duodenum and liver for Wnt target gene expression analyses using qPCR.
Tissues were immediately transferred into RNAlater (QIAGEN) at the time of harvest. RNA was extracted using the QIAGEN RNeasy for Fibrous Tissue mini kit according to the manufacturer instructions. 50 ng total RNA were submitted to gene expression analyses using ABI one-step RT-PCR protocol and reagents. GusB gene expression was used as endogenous control. Triplicates were setup for each sample. All 5 tumors of each treatment group were analyzed. ABI 7900 TaqMan machine was used to run the experiments. ABI SDS 2.2.1 software was used to analyze the data and calculate DeltaCt values that were converted into relative quantities. The triplicate values of all 5 tumors were averaged for each treatment group. Fold inhibition factors were then calculated relative to control antibody (LZ1).
In general terms: Quantitative PCR measures a nucleic acid by following its amplification.

The target in experiment [3] is FZD1. Description: Biacore affinity to recombinant Fzd Fc protein. Conditions: IgG antibody; Fzd Fc immobilized on CM5 Biacore chip. In kind it is binding, human. How it is done:
(§3) The KDs of 18R8 and 18R5 antibodies were determined using the Biacore 2000 system from Biacore Lifescience (GE Healthcare). Specifically, purified anti-Fzd7 antibodies were serially diluted in 2-fold increments from 100 to 0.78 nM in HBS-P (0.01 M HEPES pH 7.4, 0.15 M NaCl, 0.005% v/v Surfactant P20). Each dilution was tested against recombinant Fzd Fc proteins immobilized onto a CM5 Biacore chip. The association and dissociation rates were measured and KD values determined using the Biaevaluation software program (Table 5, below).

The target in experiment [4] is FZD2. Description: Biacore affinity to recombinant Fzd Fc protein. In kind it is binding, human. Conditions: IgG antibody; Fzd Fc immobilized on CM5 Biacore chip. How it is done: as §3
Experiment [5] has as its target FZD5. Description: Biacore affinity to recombinant Fzd Fc protein. Conditions: IgG antibody; Fzd Fc immobilized on CM5 Biacore chip. It counts as binding, human. How it is done:
as §3
A general note: Surface plasmon resonance follows binding to a sensor surface in real time, without labels.

The test system of experiment [6] is MMTV-WNT1 tumor derived cells. The experiment can be described thus: MMTV-WNT1 tumor growth. In kind it is in vivo, NOD/SCID mice. Conditions: 10 mg/kg intra-peritoneal twice weekly; p=0.002. How it is done:
Female NOD/SCID mice were injected at age 5-7 weeks with 50,000 mouse mammary tumor virus (MMTV)-WNT1 tumor derived cells in the upper right mammary fat pad. […] Tumors from these mice were dissociated and these dissociated tumor cells used for tumor propagation purposes. Mice with tumor cells implanted in the mammary fat pad were monitored twice a week. Once tumors were palpable, tumors were measured twice weekly and tumor volume was determined using the formula ½(a×b^2); where a=length, and b=breadth. Data are expressed as mean and mean±S.E.M. Group means were compared using Student's two-tailed, unpaired t test. […] On day 19, mice with average tumor volume of 44 mm^3 were randomized into 2 groups of 10 animals each. Animals were injected with either control antibody, or 18R5 IgG antibody (10 mg/kg). Administration of the antibodies was performed via injection into the intra-peritoneal cavity, twice weekly.

Experiment [7] deals with OMP-LU33 human lung tumors. Description: OMP-LU33 lung tumor xenograft growth. As to conditions: antibodies 10 mg/kg IP twice per week. In kind it is in vivo, NOD-SCID mice. How it is done: 10,000 OMP-LU33 human lung tumor cells were injected subcutaneously in NOD-SCID mice. Tumors were allowed to grow for 30 days until they reached an average volume of 124 mm^3. The animals were randomized into 4 groups (n=10 per group) and treated with either control antibody (squares), Avastin® (triangles pointing down), anti-FZD 18R5 (triangles pointing up), or the combination of 18R5 plus Avastin® (circles).

For experiment [8], the system named is Wnt target genes. Description: qPCR of Wnt target genes in duodenum of OMP-PN13-bearing mice. In kind it is in vivo, NOD/SCID mice. How it is done: as §1, §2
Tissues were immediately transferred into RNAlater (QIAGEN) at the time of harvest. RNA was extracted using the QIAGEN RNeasy for Fibrous Tissue mini kit according to the manufacturer instructions. […] All 5 tumors of each treatment group were analyzed. […] ABI SDS 2.2.1 software was used to analyze the data and calculate DeltaCt values that were converted into relative quantities. […] Fold inhibition factors were then calculated relative to control antibody (LZ1).

Setting [9] is: fold relative to control antibody LZ1, 3 doses of 10 mg/kg over 12 days.

FZD5, sequence (Q13467 27-150 limits assumed): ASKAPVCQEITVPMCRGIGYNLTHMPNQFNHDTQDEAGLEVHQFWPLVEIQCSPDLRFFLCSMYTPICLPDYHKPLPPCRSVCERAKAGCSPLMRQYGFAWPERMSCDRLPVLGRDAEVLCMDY

B1: 44R24: anti-FZD5/8 IgG antibody, VH SEQ ID NO:85, VL SEQ ID NO:86; ATCC deposit no. PTA-10311 (antibody, V domains shown)
VH: EVQLVESGGGLVQPGGSLRLSCAASGFTFSSYYITWVRQAPGKGLEWVSTISYSSSNTYYADSVKGRFTISRDNSKNTLYLQMNSLRAEDTAVYYCARSIVFDYWGQGTLVTVSS
VL: DIELTQPPSVSVAPGQTARISCSGDALGNRYVYWYQQKPGQAPVLVIPSGIPERFSGSNSGNTATLTISGTQAEDEADYYCGSWDTRPYPKYVFGGGTKLTVLG
modifications: 44R24 VH; 44R24 VL
notes: ATCC deposit no; PTA-10311
On to B1, for which the Muc16 staining entry in experiment [1] is “slightly higher than in the LZ1-treated tumors”. For the same molecule, in experiment [2] (setting [9]), the “Liver Axin2” value is −2.4x and the “Liver Rhbg” value was −1.9x.

B2: 18R5: human anti-FZD antibody; VH SEQ ID NO:10 (as 18R8), VL SEQ ID NO:14; binds FZD1, 2, 5, 7, 8 (antibody, V domains shown)
VH: EVQLVESGGGLVQPGGSLRLSCAASGFTFSHYTLSWVRQAPGKGLEWVSVISGDGSYTYYADSVKGRFTISSDNSKNTLYLQMNSLRAEDTAVYYCARNFIKYVFANWGQGTLVTVSS
VL: DIELTQPPSVSVAPGQTARISCSGDNIGSFYVHWYQQKPGQAPVLVIYDKSNRPSGIPERFSGSNSGNTATLTISGTQAEDEADYYCQSYANTLSLVFGGGTKLTVLG
modifications: 18R5/18R8 heavy chain variable region (VH); 18R5 light chain variable region (VL)
B2: the dissociation constant (Kd) – broadly, the constant that tells how readily two partners part at equilibrium – in experiment [3] was found to be 4.6 nM. Also, the Kd in experiment [4] was 3.3 nM. In addition, the equilibrium dissociation constant (Kd) in experiment [5] was 1.9 nM. Also, the “tumor growth compared to control antibody” value in experiment [6] is on record as “completely abolished tumor growth”. Further, the xenograft tumor growth result in experiment [7] is reported as “inhibits OMP-LU33 xenograft tumor growth”. Also, the Muc16 staining result in experiment [1] is listed as “higher levels of staining”. Also, in experiment [2] (setting [9]), the “Liver GluI” value is reported as −19x, the “Liver Lect2” value is reported as −8x and the “Liver Lgr5” value is −26x. The “inhibition of Wnt target gene in liver” value in experiment [2] (relative to LZ1) is 8 ×. Further, the “duodenum Lgr5” value in experiment [8] (setting [9]) was −2.6x. The “Wnt target gene in the duodenum” value in experiment [8] (relative to LZ1) is reported as “unaffected”.

B3: 18R8: human anti-FZD antibody from phage display; VH SEQ ID NO:10, VL SEQ ID NO:12; binds FZD1, 2, 5, 7, 8 (antibody, V domains shown)
VH: EVQLVESGGGLVQPGGSLRLSCAASGFTFSHYTLSWVRQAPGKGLEWVSVISGDGSYTYYADSVKGRFTISSDNSKNTLYLQMNSLRAEDTAVYYCARNFIKYVFANWGQGTLVTVSS
VL: DIELTQPPSVSVAPGQTARISCSGDKLGKKYASWYQQKPGQAPVLVIYEKDNRPSGIPERFSGSNSGNTATLTISGTQAEDEADYYCSSFAGNSLEVFGGGTKLTVLG
modifications: 18R5/18R8 heavy chain variable region (VH); 18R8 light chain variable region (VL)
For the molecule B3, the Kd is 15.6 nM in experiment [3], 6.2 nM in experiment [4] and 4.2 nM in experiment [5]. Further, the “tumor growth compared to control antibody” value in experiment [6] was “virtually eliminated”.
